1 substance from publication PMC5035961 can be followed below.

Assay [1] concerns the target Influenza A nucleoprotein (strain A/WSN/1933, H1N1) (influenza A virus, H1N1 strain A/WSN/1933) (UniProt P15682). Description: negative stain electron microscopy.
For assay [2] the target is unchanged. Description: SEC-MALLS.

As usually defined, the stoichiometry N is a count of units in the complex or per binding partner.

Turning to “Influenza A nucleoprotein (strain A/WSN/1933, H1N1) (from UniProt P15682 1-498) (natural protein)”, the stoichiometry N in assay [1] and in assay [2] was 3 throughout.
